Blank lines part the entries; values can stand above or below the substance they belong to.
Experiments:
TOPBP1 BRCT0,1,2 = TOPBP1 BRCT0,1,2 (UniProt Q92547); assay: fluorescence polarisation titration; settings: reference: pT202 peptide, untreated; sites T202
[1] = target: RAD9 pS387 (Homo sapiens) (UniProt Q99638); settings: cited from earlier work
[2] = target: RHNO1 pT202 fluorescein-labelled phosphopeptide (human); assay: fluorescence polarisation; fluorescein-labelled peptide at 200 nM, increasing concentrations of recombinant protein; room temperature; 25 mM HEPES pH 7.5, 150 mM NaCl, 1 mM EDTA, 0.25 mM TCEP, 0.02% Tween-20; one site-specific binding model

Chain of TOPBP1 BRCT1 (Q92547 98-192): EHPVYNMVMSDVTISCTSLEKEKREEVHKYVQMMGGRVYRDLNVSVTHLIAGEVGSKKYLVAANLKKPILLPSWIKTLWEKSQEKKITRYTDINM
Chain of RAD9 pS387 (Homo sapiens) (Q99638 whole entry): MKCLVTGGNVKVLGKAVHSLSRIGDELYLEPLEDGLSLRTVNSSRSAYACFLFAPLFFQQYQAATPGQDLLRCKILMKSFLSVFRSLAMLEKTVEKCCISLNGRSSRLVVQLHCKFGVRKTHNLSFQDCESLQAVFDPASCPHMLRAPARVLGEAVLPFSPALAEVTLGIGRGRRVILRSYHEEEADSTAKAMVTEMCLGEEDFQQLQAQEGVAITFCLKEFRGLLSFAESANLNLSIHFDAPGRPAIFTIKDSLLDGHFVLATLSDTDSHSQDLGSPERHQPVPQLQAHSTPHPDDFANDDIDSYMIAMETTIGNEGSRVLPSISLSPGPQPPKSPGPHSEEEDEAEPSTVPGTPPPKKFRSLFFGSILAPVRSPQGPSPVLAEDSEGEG

binding against the reference (TOPBP1 BRCT0,1,2): lost
Substance: RHNO1 (from UniProt Q9BSD3) λ-phosphatase-dephosphorylated peptide

Substance: TOPBP1 BRCT1 (from UniProt Q92547)
Kd [1]: 2100 nM

fold tighter binding than RAD9-pS387 [2]: 10 fold
Substance: TOPBP1-BRCT0,1,2 segment, wild type (recombinant, fluorescence polarisation) (domain or fragment)

Reference: PMC6175577, “BRCT domains of the DNA damage checkpoint proteins TOPBP1/Rad4 display distinct specificities for phosphopeptide ligands” (eLife, 2018)
